Target: glutaryl-CoA dehydrogenase from Burkholderia pseudomallei (Burkholderia pseudomallei strain 1710b)
Assay: crystal structure

Work on “glutaryl-CoA dehydrogenase from Burkholderia pseudomallei (enzyme)” yielded a stoichiometry N of 4.

— paper PMC3169403 (Acta Crystallographica Section F: Structural Biology and …, 2011)
